Type in all cases: biochemical
The subject of data set [1] is zein. The data set is described as follows: Thermostability of Protease Pfu (Relative Activity, methods of Example 2). Conditions: pH 4.5. The method, then:
Yeast clones on SC-glucose were inoculated to a well of a 96-well micro titre plate containing YPD+Zn medium and cultivated at 28° C. for 3 days. The culture supernatants were applied to a 96-well zein micro titer plate and incubated at at least 2 temperatures (ex. 60° C. and 65° C., 70° C. and 75° C., 70° C. and 80° C.) for more than 4 hours or overnight. The turbidity of zein in the plate was measured as A630 and the relative activity (higher/lower temperatures) was determined as an indicator of thermoactivity improvement. The clones with higher relative activity than the parental variant were selected and the sequence was determined.
The thermostability of the Pyrococcus furiosus protease (Pfu S) purchased from Takara Bio Inc, (Japan) was tested using the same methods as in Example 2.

Data set [2] concerns zein. The data set is described as follows: Relative activity assay of protease variants (zein micro titer plate). Conditions: for Relative activity 75° C./65° C.: Table 4. The method in brief: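 Yeast culture supernatants (3 days, 28 °C) incubated over 4 h or overnight on zein-agar plates (pH 4.5 acetate, 0.25 mM ZnSO4) at two temperatures. Zein turbidity read at A630; higher/lower-temperature activity ratio gives relative thermoactivity.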

The subject of another data set is azo-casein. The data set is described as follows: Remaining activity assay of protease variants (azo-casein). As to conditions: pH 4.5, 4° C. as reference; for Remaining activity 80° C.: 10 min at 80° C.; for Remaining activity 84° C.: 10 min at 84° C. The procedure:
Yeast clones on SC-glucose were inoculated to a well of a 96-well micro titre plate and cultivated at 28° C. for 3 days. Protease activity was measured at 65° C. using azo-casein (Megazyme) after incubating the culture supernatant in 20 mM sodium acetate buffer, pH 4.5, for 10 min at a certain temperature (80° C. or 84° C. with 4° C. as a reference) to determine the remaining activity. The clones with higher remaining activity than the parental variant were selected and the sequence was determined.
20 microL of samples were mixed with 150 microL of substrate solution (4 ml of 12.5% azo-casein in ethanol in 96 ml of 20 mM sodium acetate, pH 4.5, containing 0.01% triton-100 and 0.25 mM ZnSO4) and incubated for 4 hours or longer.
After adding 20 microL/well of 100% trichloroacetic acid (TCA) solution, the plate was centrifuge and 100 microL of supernatants were pipette out to measure A440.

In data set [3] the test system is zein. The data set is described as follows: Zein-BCA assay, temperature profile of purified protease variants. The procedure:
Selected variants showing good thermo-stability were purified and the purified enzymes were used in a zein-BCA assay as described below. The remaining protease activity was determined at 60° C. after incubation of the enzyme at elevated temperatures as indicated for 60 min.
Zein-BCA assay was performed to detect soluble protein quantification released from zein by variant proteases at various temperatures.
• 1) Mix 10 ul of 10 ug/ml enzyme solutions and 100 ul of 0.025% zein solution in a micro titer plate (MTP). • 2) Incubate at various temperatures for 60 min. • 3) Add 10 ul of 100% trichloroacetic acid (TCA) solution. • 4) Centrifuge MTP at 3500 rpm for 5 min. • 5) Take out 15 ul to a new MTP containing 100 ul of BCA assay solution (Pierce Cat#:23225, BCA Protein Assay Kit). • 6) Incubate for 30 min. at 60° C. • 7) Measure A562.

Positions count from the first letter of the chain named. Names and notes keep the numbering of the source.

B1: Pfu S: commercial Pyrococcus furiosus protease purchased from Takara Bio Inc, (Japan); SEQ ID NO: 13 (protein, listed as Pyrococcus furiosus)
chain: AELEGLDESAAQVMATYVWNLGYDGSGITIGIIDTGIDASHPDLQGKVIGWVDFVNGRSYPYDDHGHGTHVASIAAGTGAASNGKYKGMAPGAKLAGIKVLGADGSGSISTIIKGVEWAVDNKDKYGIKVINLSLGSSQSSDGTDALSQAVNAAWDAGLVVVVAAGNSGPNKYTIGSPAAASKVITVGAVDKYDVITSFSSRGPTADGRLKPEVVAPGNWIIAARASGTSMGQPINDYYTAAPGTSMATPHVAGIAALLLQAHPSWTPDKVKTALIETADIVKPDEIADIAYGAGRVNAYKAINYDNYAKLVFTGYVANKGSQTHQFVISGASFVTATLYWDNANSDLDLYLYDPNGNQVDYSYTAYYGFEKVGYYNPTDGTWTIKVVSYSGSANYQVDVVSDGSLSQPGSS
modifications: mat_peptide (1)..(412) Pyrococcus furiosus protease (Pfu)
In the case of B1, in the data set on zein [1], the “thermostability (Relative Activity) 80° C./70° C.” value is 110% and the “thermostability (Relative Activity) 90° C./70° C.” value worked out at 103%.

B2: JTP091: protease variant of SEQ ID NO: 3: D79L/S87P/A112P/T124V/D142L (protein, listed as Thermoascus aurantiacus)
chain: MRLVASLTALVALSVPVFPAAVNVKRASSYLEITLSQVSNTLIKAVVQNTGSDELSFVHLNFFKDPAPVKKVSVYRDGSEVQFEGILSRYKSTGLSRDAFTYLAPGESVEDVFDIASTYDLTSGGPVTIRTEGVVPYATANSTDIAGYISYSSNVLTIDVDGAAAATVSKAITPLDRRTRISSCSGSRQSALTTALRNAASLANAAADAAQSGSASKFSEYFKTTSSSTRQTVAARLRAVAREASSSSSGATTYYCLDPYGYCSPNVLAYTLPSYNIIANCDIFYTYLPPLTSTCHAQDQAVTALHEFTHAPGVYSPGTLDLAYGYQAAMGLSSSQAVMNADTYALYANAIYLGC
Turning to B2, in the data set with zein [2], the “Relative activity 75° C./65° C.” value amounted to 154%. Besides, the “Remaining activity 80° C.” value in the data set with azo-casein is on record as 43%.

B3: JTP127: protease variant of SEQ ID NO: 3: D79L/S87P/A112P/T124V/A126V/D142L (protein, listed as Thermoascus aurantiacus)
chain: B2 chain with A304V
In the case of B3, in the data set on azo-casein, the “Remaining activity 80° C.” value is given as 53%.

B4: JTP117: protease variant of SEQ ID NO: 3: D79L/Y82F/S87P/A112P/T124V/D142L (protein, listed as Thermoascus aurantiacus)
chain: B2 chain with Y260F
For B4, the “Remaining activity 80° C.” value in the data set on azo-casein turned out to be 94%.

B5: JTP116: protease variant of SEQ ID NO: 3: D79L/Y82F/S87P/A112P/T124V/D142L (protein, listed as Thermoascus aurantiacus)
chain: B2 chain with Y260F
With B5, the “Remaining activity 80° C.” value in the data set with azo-casein turned out to be 59%.

B6: JTP196: protease variant of SEQ ID NO: 3: A27K D79L Y82F S87G D104P A112P A126V D142L (protein, listed as Thermoascus aurantiacus)
chain: B2 chain with A205K, Y260F, P265G, D282P, V302T, A304V
On to B6, for which the “Relative activity 75° C./70° C.” value in the data set with zein [2] (Table 5, lower part) came out at 102%. The “Relative activity 80° C./70° C.” value with zein [2] (Table 5, lower part) was determined as 55%. For the same molecule, in the data set with zein [2] (Table 5, upper part), the “Relative activity 85° C./70° C.” value came out at 18%. Further, the “Bovine serum albumin equivalent peptide released” value in the data set on zein [3] (Sample incubated 60 min at 60° C.) was found to be 87 µg/mL; in the data set on zein [3] (Sample incubated 60 min at 70° C.), 99 µg/mL; with zein [3] (Sample incubated 60 min at 75° C.), 103 µg/mL; with zein [3] (Sample incubated 60 min at 80° C.), 106 µg/mL; with zein [3] (Sample incubated 60 min at 85° C.) it was 117 µg/mL; in the data set with zein [3] (Sample incubated 60 min at 90° C.), 90 µg/mL. In addition, the “Bovine serum albumin equivalent peptide released” value in the data set with zein [3] (Sample incubated 60 min at 95° C.) worked out at 38 µg/mL.

B7: JTP101: protease variant of SEQ ID NO: 3: A27K/D79L/S87P/A112P/T124V/D142L (protein, listed as Thermoascus aurantiacus)
chain: B2 chain with A205K
For B7, the “Remaining activity 80° C.” value in the data set with azo-casein is recorded as 81%.

B8: JTP096: protease variant of SEQ ID NO: 3: T46R/D79L/S87P/T116V/D142L (protein, listed as Thermoascus aurantiacus)
chain: B2 chain with T224R, P290A, T294V, V302T
Consider B8, for which, in the data set with azo-casein, the “Remaining activity 84° C.” value was 67%.

B9: JTP095: protease variant of SEQ ID NO: 3: N26R/T46R/D79L/S87P/A112P/D142L (protein, listed as Thermoascus aurantiacus)
chain: B2 chain with N204R, T224R, V302T
With B9, the “Remaining activity 84° C.” value in the data set on azo-casein was 62%.

B10: JTP099: protease variant of SEQ ID NO: 3: D79L/P81R/S87P/A112P/D142L (protein, listed as Thermoascus aurantiacus)
chain: B2 chain with P259R, V302T
On to B10, for which the “Remaining activity 84° C.” value in the data set on azo-casein is listed as 80%.

B11: JTP092: protease variant of SEQ ID NO: 3: ΔS5/N26R/D79L/S87P/A112P/D142L (protein, listed as Thermoascus aurantiacus)
chain: MRLVASLTALVALSVPVFPAAVNVKRASSYLEITLSQVSNTLIKAVVQNTGSDELSFVHLNFFKDPAPVKKVSVYRDGSEVQFEGILSRYKSTGLSRDAFTYLAPGESVEDVFDIASTYDLTSGGPVTIRTEGVVPYATANSTDIAGYISYSSNVLTIDVDGAAAATVSKAITPLDRRTRISCSGSRQSALTTALRNAASLARAAADAAQSGSASKFSEYFKTTSSSTRQTVAARLRAVAREASSSSSGATTYYCLDPYGYCSPNVLAYTLPSYNIIANCDIFYTYLPPLTSTCHAQDQATTALHEFTHAPGVYSPGTLDLAYGYQAAMGLSSSQAVMNADTYALYANAIYLGC
For B11, the “Remaining activity 84° C.” value in the data set with azo-casein is given as 60%.

B12: JTP082: protease variant of SEQ ID NO: 3: ΔS5/D79L/S87P/A112P/D142L (protein, listed as Thermoascus aurantiacus)
chain: B11 chain with R203N
Consider B12, for which the “Relative activity 75° C./65° C.” value with zein [2] stood at 129%. The “Remaining activity 84° C.” value in the data set with azo-casein is on record as 53%.

Values taken from US20170283834A1, “Processes for Producing A Fermentation Product Using A Fermenting Organism” (Novozymes A/S, priority 2014, published 2017).
